Molecular target: the molecule itself
Experiment: cryo-EM structure; single-particle cryo-EM of purified EXTL3ΔN at 0.1-0.4 mg/ml, C2 symmetry; apo (2.4 Å) and with 10 mM UDP and 2.5 mM MnCl2 (2.9 Å); buffer 50 mM Tris-HCl pH 6.8, 100 mM NaCl, 50 mM KCl

B1: EXTL3ΔN, soluble form of human exostosin-like 3 (EXTL3) lacking the first 51 amino acids (enzyme, UniProt O43909 52-919, looked up)
chain: TTLDEADEAGKRIFGPRVGNELCEVKHVLDLCRIRESVSEELLQLEAKRQELNSEIAKLNLKIEACKKSIENAKQDLLQLKNVISQTEHSYKELMAQNQPKLSLPIRLLPEKDDAGLPPPKATRGCRLHNCFDYSRCPLTSGFPVYVYDSDQFVFGSYLDPLVKQAFQATARANVYVTENADIACLYVILVGEMQEPVVLRPAELEKQLYSLPHWRTDGHNHVIINLSRKSDTQNLLYNVSTGRAMVAQSTFYTVQYRPGFDLVVSPLVHAMSEPNFMEIPPQVPVKRKYLFTFQGEKIESLRSSLQEARSFEEEMEGDPPADYDDRIIATLKAVQDSKLDQVLVEFTCKNQPKPSLPTEWALCGEREDRLELLKLSTFALIITPGDPRLVISSGCATRLFEALEVGAVPVVLGEQVQLPYQDMLQWNEAALVVPKPRVTEVHFLLRSLSDSDLLAMRRQGRFLWETYFSTADSIFNTVLAMIRTRIQIPAAPIREEAAAEIPHRSGKAAGTDPNMADNGDLDLGPVETEPPYASPRYLRNFTLTVTDFYRSWNCAPGPFHLFPHTPFDPVLPSEAKFLGSGTGFRPIGGGAGGSGKEFQAALGGNVPREQFTVVMLTYEREEVLMNSLERLNGLPYLNKVVVVWNSPKLPSEDLLWPDIGVPIMVVRTEKNSLNNRFLPWNEIETEAILSIDDDAHLRHDEIMFGFRVWREARDRIVGFPGRYHAWDIPHQSWLYNSNYSCELSMVLTGAAFFHKYYAYLYSYVMPQAIRDMVDEYINCEDIAMNFLVSHITRKPPIKVTSRWTFRCPGCPQALSHDDSHFHERHKCINFFVKVYGYMPLLYTQFRVDSVLFKTRLPHDKTKCFKFI
modifications: partial N-glycans modelled at Asn592 and Asn790; intermolecular disulfide bridges between Cys793 and Cys915
notes: human exostosin-like 3 (EXTL3), amino acids 52-919; holds the predicted coiled coil, the GT47 domain, the inter-domain linker and the GT64 domain; lacks the transmembrane helix; Only the 170 kDa globular part (GT47, linker, GT64) is seen in the map; the coiled coil is not visible; also called EXTL3∆N; secretory EXTL3∆N
stoichiometry N: 2
